Target: T1, N-GST-tagged Ythdf (full length) (Drosophila melanogaster, UniProt Q9VBZ5 1-700)
T1 sequence: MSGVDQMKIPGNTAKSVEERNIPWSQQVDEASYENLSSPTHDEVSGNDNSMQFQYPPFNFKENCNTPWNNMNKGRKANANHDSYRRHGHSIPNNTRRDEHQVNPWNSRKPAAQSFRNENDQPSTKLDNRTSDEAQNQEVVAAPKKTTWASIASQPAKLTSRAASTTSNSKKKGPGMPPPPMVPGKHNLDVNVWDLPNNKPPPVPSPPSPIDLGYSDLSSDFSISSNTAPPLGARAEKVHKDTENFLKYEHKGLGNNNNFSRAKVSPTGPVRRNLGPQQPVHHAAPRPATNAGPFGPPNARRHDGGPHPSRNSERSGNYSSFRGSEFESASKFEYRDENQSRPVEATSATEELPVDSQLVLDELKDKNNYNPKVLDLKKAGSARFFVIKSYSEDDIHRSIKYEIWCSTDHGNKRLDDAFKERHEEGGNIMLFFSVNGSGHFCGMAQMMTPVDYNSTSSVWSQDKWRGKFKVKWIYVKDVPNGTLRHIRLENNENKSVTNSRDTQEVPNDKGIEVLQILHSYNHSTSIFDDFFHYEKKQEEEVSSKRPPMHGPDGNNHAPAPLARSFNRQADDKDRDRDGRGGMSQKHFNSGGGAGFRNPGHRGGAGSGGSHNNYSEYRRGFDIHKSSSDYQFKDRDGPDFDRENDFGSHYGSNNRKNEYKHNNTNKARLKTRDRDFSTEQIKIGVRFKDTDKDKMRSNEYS
Assay: pull-down

B1: N-His6-tagged NT-Fmr1 (220-684) (domain or fragment)
chain: not shown
- binding result: binds

Reference: PMC7883056 (The EMBO Journal, 2021)
